The target of this experiment is light-harvesting complexes of G. phototrophica (light-harvesting antenna subunits, B868 inner ring and B816 outer ring) (G. phototrophica (endogenous in strain AP64)). Description: negative-stain TEM with single particle analysis; freshly purified complexes on carbon-coated copper grids, 1.5% uranyl acetate, 200 kV, 2D class averages in RELION.

As to “light-harvesting complexes of G. phototrophica (light-harvesting antenna subunits, B868 inner ring and B816 outer ring)”, the stoichiometry N – broadly, a count of units in the complex or per binding partner – amounted to 15.

The values are drawn from PMC5749889.
